According to patent US20240262926A1 (published 2024):

T1: recombinant monkey TfR (r monkey TfR: Sino Biological Inc.) (cynomolgus monkey (Macaca fascicularis), UniProt Q5RDH6 89-760 (Pongo abelii entry))
T1 construct: Bought product; also called r monkey TfR-ECD (Histag); cynomolgus monkey TfR; not shown: histidine tag attached to the N-terminus
T1 chain: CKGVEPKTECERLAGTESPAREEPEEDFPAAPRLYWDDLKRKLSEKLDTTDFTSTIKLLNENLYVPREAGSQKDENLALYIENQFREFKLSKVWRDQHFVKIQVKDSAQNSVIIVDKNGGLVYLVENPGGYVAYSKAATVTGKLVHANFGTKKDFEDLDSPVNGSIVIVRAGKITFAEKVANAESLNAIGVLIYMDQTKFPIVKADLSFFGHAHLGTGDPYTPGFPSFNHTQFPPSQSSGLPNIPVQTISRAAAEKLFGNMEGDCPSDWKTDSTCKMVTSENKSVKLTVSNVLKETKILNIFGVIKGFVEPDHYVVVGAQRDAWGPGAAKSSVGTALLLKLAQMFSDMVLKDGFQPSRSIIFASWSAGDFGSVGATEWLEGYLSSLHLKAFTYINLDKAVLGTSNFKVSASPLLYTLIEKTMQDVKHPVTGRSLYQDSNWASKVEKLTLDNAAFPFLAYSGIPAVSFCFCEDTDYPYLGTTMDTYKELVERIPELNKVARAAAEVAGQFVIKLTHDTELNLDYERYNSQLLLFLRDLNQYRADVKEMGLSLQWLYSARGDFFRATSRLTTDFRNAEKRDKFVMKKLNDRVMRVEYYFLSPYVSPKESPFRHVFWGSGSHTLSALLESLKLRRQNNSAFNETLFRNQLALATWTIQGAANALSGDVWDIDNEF


How the values were obtained:
[1] = target: T2, recombinant human TfR (r human TfR: Sino Biological Inc.) (human, UniProt P02786 89-760); experiment: BLI (Octet RED96), His-tagged TfR ECD loaded on Ni-NTA sensor, antibody as analyte
T2 construct: Bought product; also called r human TfR-ECD (Histag); hTfR; not shown: histidine tag attached to the N-terminus
Procedure: (§1) By measuring the variations of this shift between the interfering waves, determination of the number of the molecules bound to the layer of the biomolecules immobilized to the sensor tip surface and kinetic analysis of it can be performed in real time. The measurement was performed according generally to the operating manual attached to Octet RED96. As a human TfR, a recombinant human TfR (r human TfR: Sino Biological Inc.) was used, which had the amino acid sequence of the hTfR extracellular region, i.e., the cysteine residue at the position 89th from the N-terminal side to the phenylalanine at the C-terminus, of the amino acid sequence set forth as SEQ ID NO:1, with a histidine tag attached to the N-terminus. As a monkey TfR, a recombinant monkey TfR (r monkey TfR: Sino Biological Inc.) was used, which had the amino acid sequence of the cynomolgus monkey TfR extracellular region, i.e., the cysteine residue at the position 89th from the N-terminal side to the phenylalanine at the C-terminus, of the amino acid sequence set forth as SEQ ID NO:2, with a histidine tag attached to the N-terminus.
(§2) Each of the antibodies (anti-hTfR antibody Nos. 1 to 14) purified above was subjected to 2-fold dilution steps with HBS-P+(10 mM HEPES containing 150 mM NaCl, 50 μM EDTA and 0.05% Surfactant P20) to prepare antibody solutions of 7 different concentrations, 0.78125 to 50 nM (0.117 to 7.5 μg/mL). These antibody solutions were used as the sample solutions. The r human and r monkey TfRs were respectively diluted with HBS-P+ to prepare 25 μg/mL solutions, which were used as r human TfR-ECD (Histag) solution and r monkey TfR-ECD (Histag) solution, respectively.
(§3) Each of the sample solutions prepared above by 2-fold dilution steps was added, 200 μL/well, to a 96-well plate, black (Greiner Bio-One Inc.). Each of the r human TfR-ECD (Histag) solution and the r monkey TfR-ECD (Histag) solutions prepared above was added, 200 μL/well, to predetermined wells. To respective wells for baseline, dissociation and washing were added HBS-P+, 200 μL/well. To wells for regeneration were added 10 mM Glycine-HCl, pH 1.7, 200 μL/well. To wells for activation was added 0.5 mM NiCl₂ solution, 200 μL/well. The plate and biosensor (Biosensor/Ni-NTA: ForteBio Inc., a division of Pall Corporation) were set in the prescribed positions of Octet RED96.

[2] = target: T1, recombinant monkey TfR (r monkey TfR: …); experiment: as above
Procedure: as §1, §2, §3

Row | Binder | Kd [1] | koff [1] | kon [1] | Kd [2] | koff [2] | kon [2]
1 | anti-hTfR antibody No. 1 (antibody, V domains shown, Mouse hybridoma antibody purified on Protein G; also called mouse anti-hTfR antibody No. 1; product of Clone 1 line) VH: EVQLQESGGGLVQPGGSLKLSCAASGLTFSNYGMSWIRQTPDKRLELVANINTNGGSTYYPDSVKGRFTISRDNAKNTLYLQMNSLKSEDTAIYYCTNNRYDEDYWGQGTSVTVSS VL: DIVLTQSSKFMSTSVGDRVSITCKASQDVNSAVAWFQQKPGQSPKLLIYWTSTRHTGVPDRFTGSGSGTVYTLTISSVQAEDLALYYCQQHYSTPRTFGGGTKLEIKR | 5.09 pM | 2.55e-06 s⁻¹ | 500000 M⁻¹ s⁻¹ | < 1 pM | < 1e-07 s⁻¹ | 280000 M⁻¹ s⁻¹
2 | anti-hTfR antibody No. 2 (antibody, V domains shown, Mouse hybridoma antibody purified on Protein G; also called mouse anti-hTfR antibody No. 2; product of Clone 2 line) VH: EVQLQESGAELVRPGVSVKISCKGSGYTFTDYVMHWVRQSHAKSLEWIGVISTYYGHGSYNQRFKGKATMTVDKSSSTAYLELVRLTSEDSAIYYCVRGGYGSSSLAGNFDVWGAGTTVTVSS VL: DIVLTQSPATLSVTPGDSVSLSCRASQSISNNLQWYQQKSHESPRLLIKYASQSISGIPSRFSGSGSGTDFTLSINSVETEDFGMYFCQQSNSWPRTFGAGTKLELKR | 11.2 pM | 1.23e-05 s⁻¹ | 1.11e+06 M⁻¹ s⁻¹ | – | – | –
3 | anti-hTfR antibody No. 4 (antibody, V domains shown, Mouse hybridoma antibody purified on Protein G; also called mouse anti-hTfR antibody No. 4; product of Clone 4 line) VH: EVQLQESGAELVRPGTSVRVFCKASGYAFTNYLIEWVKQRPGQGLEWIGLINPGSGGIIYNEKFTDRATLTADKSSSTAYMQLSSLTSDDSAVYFCARSNYYGTTYWHFDVWGAGTTVTVSS VL: DIVLTQTPAIMSASPGEKVTMTCSASSNVNYMHWYQQKSSTSPKLWIYDTSKLASGVPGRFSGSGSGNSYSLTISSMEAEDVATYYCFQGNGNPYTFGGGTKLEIK | 120 pM | 0.000229 s⁻¹ | 1.91e+06 M⁻¹ s⁻¹ | 161 pM | 0.000121 s⁻¹ | 754000 M⁻¹ s⁻¹
4 | anti-hTfR antibody No. 8 (antibody, V domains shown, Mouse hybridoma antibody purified on Protein G; also called mouse anti-hTfR antibody No. 8; product of Clone 8 line) VH: EVQLQESGPGLVAPSQSLSITCTVSGFSLTTYGVSWIRQPPGKGLEWLGIIWGDGSTNYRSALISRLSISKDNSKNQVFLKLNSLQTDDTATYYCAKPDDYWGQGTSVTVSS VL: DIVLTQSPAIMSASLGEEITLTCSASSSVSYMHWYQQKSGTSPKVLIYGTSNLASEVPSRFSGSGSGTFYSLTISSVEAEDAADYYCHQWSSYPWTFGGGTKLEIK | < 1 pM | < 1e-07 s⁻¹ | 696000 M⁻¹ s⁻¹ | 9180 pM | 0.00507 s⁻¹ | 552000 M⁻¹ s⁻¹
5 | anti-hTfR antibody No. 12 (antibody, V domains shown, Mouse hybridoma antibody purified on Protein G; also called mouse anti-hTfR antibody No. 12; product of Clone 12 line) VH: EVQLQESGAELARPGTSVKVSCKAAGYVFINYLIEWVKQRPGQGLEWIGVIHSGSGGTNYNDNFKDKATLTRDVSSSTAYMQLSSLTSDDSAVYFCARRNFGNYYFDYWGQGTTLTVSS VL: DIVLTQSHKFMSTVIGDRVSITCKASHDVKTAVAWYQQTPGQSPKLLTYWSSTRHTGVPDRFTGSGSGTDYTLTISSVQAEDLALYYCQQHFSTPLTFGAGTKLELK | 432 pM | 0.000723 s⁻¹ | 754000 M⁻¹ s⁻¹ | 249 pM | 0.000126 s⁻¹ | 505000 M⁻¹ s⁻¹
6 | anti-hTfR antibody No. 11 (antibody, V domains shown, Mouse hybridoma antibody purified on Protein G; also called mouse anti-hTfR antibody No. 11; product of Clone 11 line) VH: EVQLQESGAELVRPGSSVKISCKASGYAFSIYWINWLKQRPGQGLEWIGQIYPGNGDTNYNGKFKGKATLTADKSSNTVYMRLSSLTSEDSAVYFCGRWGDDYAMDFWGQGTSVTVSS VL: DIVLTQSPATLSVTPGDRVSLSCRASQSIRNYLHWYQQKSHESPRLLIKYASQSISGIPSRFSGSGSGTDFTLSINSVETEDFGMYFCQQTNSWPYTFGGGTKLEIK | 83.7 pM | 2.28e-05 s⁻¹ | 272000 M⁻¹ s⁻¹ | 3380 pM | 0.000421 s⁻¹ | 124000 M⁻¹ s⁻¹
7 | anti-hTfR antibody No. 13 (antibody, V domains shown, Mouse hybridoma antibody purified on Protein G; also called mouse anti-hTfR antibody No. 13; product of Clone 13 line) VH: EVQLQESGAELVRPGSSVKISCKASGYAFSIYWINWLKQRPGQGLEWIGQIYPGNGDTNYNGKFKGKATLTADKSSNTVYMRLSSLTSEDSAVYFCGRWGDDYAMDFWGQGTSVTVSS VL: DIVITQTPATLSVTPGDRVSLSCRASQSIRNYLHWYQQKSHESPRLLIKYASQSISGIPSRFSGSGSGTDFTLTINSVETEDFGMYFCQQTNSWPYTFGGGTKLEIK | < 1 pM | < 1e-07 s⁻¹ | 835000 M⁻¹ s⁻¹ | 123 pM | 7.29e-05 s⁻¹ | 591000 M⁻¹ s⁻¹

Other lines, results leading:

Row | Kd [1] | koff [1] | kon [1] | Kd [2] | koff [2] | kon [2] | Binder
8 | 36.4 pM | 2.44e-05 s⁻¹ | 671000 M⁻¹ s⁻¹ | 1460 pM | 0.000758 s⁻¹ | 519000 M⁻¹ s⁻¹ | anti-hTfR antibody No. 5 (antibody, V domains shown, Mouse hybridoma antibody purified on Protein G; also called mouse anti-hTfR antibody No. 5; product of Clone 5 line) VH: EVQLQESGPELVKPGASVKMSCKASGYTFTNFVIHWVKQRPGQGLEWIGFFNPHKNGAEYNEKFQVKATLTSDKSSTTAYMELNSLTSEDSAVYYCARSFYYYSMDYWGQGTSVTVSS VL: DIVMTQTPAIMSASPGEKVTMTCSASSSISSIHWYQQKPGTSPKRWIYDTSTLASGVPVRFSGSGSGTSYSLTISSMEAEDAATYYCHQRSSYPTFGGGTKLEIK
9 | 121 pM | 9.46e-05 s⁻¹ | 782000 M⁻¹ s⁻¹ | – | – | – | anti-hTfR antibody No. 9 (antibody, V domains shown, Mouse hybridoma antibody purified on Protein G; also called mouse anti-hTfR antibody No. 9; product of Clone 9 line) VH: EVQLQESGPELKKPGETVKISCKASGYTFTNYGVSWVKQAPGKDLKWMGWIYTFTGEATYIDDFRGRFAFSLETSANTAYLQINNLKNEDTATYFCSRRNGAWFEDWGQGTLVTVSA VL: DIVLTQSPALMSASPGETVTMTCSASSSVSLMFWYQQKPRSSPKPWIYFTSYRASGVPIRFSGSGSGTSFSLTISNLEAEDAATYYCQQWTSDPPTFGSGTKLEIE
10 | 958 pM | 0.000723 s⁻¹ | 754000 M⁻¹ s⁻¹ | 123 pM | 0.000236 s⁻¹ | 495000 M⁻¹ s⁻¹ | anti-hTfR antibody No. 6 (antibody, V domains shown, Mouse hybridoma antibody purified on Protein G; also called mouse anti-hTfR antibody No. 6; product of Clone 6 line) VH: EVQLQESGPGLVAPSQSLSITCSVSGFSLSTYGVYWVRQPPGKGLEWLGIIWGDGSTNYHSALISRLTISKDNSKSQVFLKLNSLQTADTATYYCAKPDDVWGAGTTVTVSS VL: DIVLTQTPSSLSASLGERVSLTCRASQEISGYLSWLQQKPDGTIKRLIYAASTLDSGVPKRFSGSRSGSDYSLTISSLESEDFADYYCLQYSSYPRTFGGGTKLEIK
11 | 1130 pM | 0.000766 s⁻¹ | 679000 M⁻¹ s⁻¹ | 31600 pM | 0.0122 s⁻¹ | 387000 M⁻¹ s⁻¹ | anti-hTfR antibody No. 10 (antibody, V domains shown, Mouse hybridoma antibody purified on Protein G; also called mouse anti-hTfR antibody No. 10; product of Clone 10 line) VH: EVQLQESGGGLVKPGGSLKLSCEASGITFRNYAMSWVRQTPEKRLEWVATISSYGGYTYYADSVKGRFTVSRDNAGNTLYLQMSSLRSEDTAMYHCARQEVPYPYPMDNWGQGTSVIVSS VL: DIVMTQTPSSLSASLGERVSLTCRPSQEISGYLSWLQQKPDGTIKRLIYAASTLDSGVPKRFSGSRSGSDYSLTISSLESEDFADYYCLQYASYPRTFGGGTKLEIK
12 | 82.2 pM | 3.03e-05 s⁻¹ | 369000 M⁻¹ s⁻¹ | 17.1 pM | 4.54e-06 s⁻¹ | 266000 M⁻¹ s⁻¹ | anti-hTfR antibody No. 7 (antibody, V domains shown, Mouse hybridoma antibody purified on Protein G; also called mouse anti-hTfR antibody No. 7; product of Clone 7 line) VH: EVQLQESGGALVKPGGSLKVSCEASGITFRNYFMSWVRQTPEKRLEWVATISSAGGYTYYADSVKGRFTISRDNAGNTLYLQMSSLRSEDTAMYFCARQEVPYPYAMDYWGQGTSVIVSS VL: DIVLTQSPVIMSASLGEEITLTCSASSSVNYIHWYQQKSGTSPKVLIYQTSNLASGVPSRFSGSRSGTFYSLKISSVEAEDAADYYCHQWSSYPWTFGGGTKLEIK
